Blank lines part the entries; values can stand above or below the molecule they belong to.
What was measured:
[1] = target: AfAgoΔ (dimerization mutant of AfAgo lacking residues 296–303) (Archaeoglobus fulgidus) (UniProt O28951)
[2] = target: T1, AfAgoΔ (dimerization mutant) (Archaeoglobus fulgidus (ATCC 49558), UniProt O28951 1-427, del296-303); assay: SEC-MALS; 5 mM MgCl2; 5 uM protein monomer, 5 uM duplex; major peak 1:1 protein:DNA; SEC-MALS of complexes: 15 mM Tris-HCl pH 8.0, 150 mM NaCl, 5 mM MgCl2, 0.5 mM DTT, 0.04% NaN3; EMSA, AFM and smFRET buffers not in the material; details: protein: recombinant; blunt; self-complementary, 2 copies of the strand
T1 sequence: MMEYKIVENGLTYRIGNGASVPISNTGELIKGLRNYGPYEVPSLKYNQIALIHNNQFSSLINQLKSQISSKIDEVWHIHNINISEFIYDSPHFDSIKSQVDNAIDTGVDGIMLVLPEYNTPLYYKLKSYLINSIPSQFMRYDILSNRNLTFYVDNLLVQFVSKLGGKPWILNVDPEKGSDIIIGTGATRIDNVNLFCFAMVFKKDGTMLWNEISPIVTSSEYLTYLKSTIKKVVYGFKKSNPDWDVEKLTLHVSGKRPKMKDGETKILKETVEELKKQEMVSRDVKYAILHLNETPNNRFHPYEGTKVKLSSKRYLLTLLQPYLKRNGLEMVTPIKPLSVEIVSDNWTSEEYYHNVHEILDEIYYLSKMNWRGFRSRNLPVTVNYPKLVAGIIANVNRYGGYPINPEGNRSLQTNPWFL

WT AfAgo = target: T2, WT AfAgo (Archaeoglobus fulgidus (ATCC 49558), UniProt O28951 1-427); assay: SEC-MALS; 5 mM MgCl2; 5 uM protein monomer, 5 uM duplex; mostly 2:2 protein:DNA; SEC-MALS of complexes: 15 mM Tris-HCl pH 8.0, 150 mM NaCl, 5 mM MgCl2, 0.5 mM DTT, 0.04% NaN3; EMSA, AFM and smFRET buffers not in the material; details: protein: recombinant; chain copies: 2; blunt; self-complementary, 2 copies of the strand
T2 sequence: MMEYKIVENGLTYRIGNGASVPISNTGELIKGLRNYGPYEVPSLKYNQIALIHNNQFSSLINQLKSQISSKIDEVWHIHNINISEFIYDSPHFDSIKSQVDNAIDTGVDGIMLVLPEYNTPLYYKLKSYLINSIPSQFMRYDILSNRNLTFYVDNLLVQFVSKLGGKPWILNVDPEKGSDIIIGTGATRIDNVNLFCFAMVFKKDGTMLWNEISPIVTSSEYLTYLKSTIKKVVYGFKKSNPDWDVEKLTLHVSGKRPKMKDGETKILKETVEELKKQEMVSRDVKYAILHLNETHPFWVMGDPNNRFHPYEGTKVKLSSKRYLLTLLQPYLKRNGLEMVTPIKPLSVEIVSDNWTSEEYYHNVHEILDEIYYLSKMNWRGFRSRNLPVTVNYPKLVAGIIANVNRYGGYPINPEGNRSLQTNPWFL

[3] = target: the molecule itself; assay: SEC-MALS; apo proteins without nucleic acids; 1.0 mg/mL (20 µM monomer), 2.0 mL injected; HiLoad 16/60 Superdex 200; 100 mM Tris–HCl pH 8.0, 1000 mM NaCl, 0.04% NaN3; dimer to monomers
[4] = target: the molecule itself; assay: cell-based or functional assay

AFM: DNA loops, % of protein–DNA complexes [1]: 26%
Molecule: AfAgoΔ (dimerization mutant of AfAgo lacking residues 296–303) (from UniProt O28951 1-427) (natural protein)

B1: MZ-1289 oligoduplex (dsDNA)
DNA 1: ATTGTACGTACAAT
DNA 2: ATTGTACGTACAAT
modifications: 5'-phosphate
binding result [2]: binds
binding result (WT AfAgo): binds

B2: WT AfAgo (prokaryotic Argonaute from Archaeoglobus fulgidus, full-length wild type) (natural protein, UniProt O28951 1-427, looked up)
chain: T2 sequence
notes: The printed theoretical Mw of the monomer in the assays (50.8 kDa) is 49.2 kDa plus the 1.63 kDa tag, so the tag was on the protein; In some assays the protein carried a 5'-phosphorylated DNA duplex (MZ-1289) or a long DNA fragment; also called apo-AfAgo; source: E. coli BL21(DE3), purified (Ni2+ HiTrap chelating, RNase A/T1 treatment, HiTrap Heparin, Superdex 200)
stoichiometry N [3]: 2
smFRET in solution: DNA looping efficiency K (ratio of looped to unlooped dual-labelled 569 bp DNA) against WT AfAgo concentration; maximum at 2 nM, lower at higher concentrations [4]: 2.5
